Biological target: hRLuc-connector-DhaA.H272F-Flag fusion protein with covalently bound biotin-C18H32O4- (after treatment with biotin-C18H32O4-Cl) (Renilla; Rhodococcus rhodochrous) (UniProt P0A3G2)
Experiment: capture on streptavidin-coated 96 well plate after treatment with biotin-C18H32O4-Cl, read as luciferase activity

Work on “streptavidin (SA), coated on 96 well plates (Pierce) or on MagnaBind beads (Pierce #21344) (from UniProt P22629 37-163)” yielded an efficiency of capturing (percent of Renilla luciferase activity added to the plate) greater than 50%.

From patent US20110201024A1
